Experimental findings from US20200062856A1 (XDCEXPLORER SHANGHAI, published 2020) are described below.

Substitutions are numbered along the chain they refer to.

In this assay the target is T1, human TPBG-hFc protein (human, UniProt Q13641 32-355).
T1 construct: range 32-355; Expressed in HEK293 cells, purified on protein A; also called immunogen A; hFc tagged TPBG protein; not shown: human IgG Fc fragment of the pCpC vector
T1 sequence (looked up): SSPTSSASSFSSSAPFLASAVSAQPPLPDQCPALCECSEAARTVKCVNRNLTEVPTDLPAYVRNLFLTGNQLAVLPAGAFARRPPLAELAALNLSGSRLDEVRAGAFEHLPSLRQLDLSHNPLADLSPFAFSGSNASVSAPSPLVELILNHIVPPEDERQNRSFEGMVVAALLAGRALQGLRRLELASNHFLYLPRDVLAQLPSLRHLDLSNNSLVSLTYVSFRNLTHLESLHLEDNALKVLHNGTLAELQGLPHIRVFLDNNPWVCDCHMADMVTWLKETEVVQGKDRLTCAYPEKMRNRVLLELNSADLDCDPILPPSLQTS
As to the kind of experiment: ELISA, coated human TPBG-hFc. The protocol:
The purified human TPBG-hFc obtained from step (1) diluting with PBS to a final concentration of 1.0 μg/mL was aliquoted into a 96-well ELISA plate at 100 μL per well, and sealed with a parafilm and incubated at 4° C. overnight. The plate was washed twice with plate washing buffer (PBS containing 0.01% (v/v) Tween 20), and blocked with blocking buffer (PBS containing 0.01% (v/v) Tween 20 and 1% (w/w) BSA) at room temperature for 2 h. The blocking buffer was discarded, and […] per well of the purified antibody TPBG was added. After incubating at 37° C. for 2 h, the plate was washed for three times with plate washing buffer (PBS containing 0.01% (v/v) Tween 20). HRP (horseradish peroxidase)-labeled secondary antibody (purchased from Sigma) was added and incubated at 37° C. for 2 h, and the plate was washed for three times using plate washing buffer (PBS containing 0.01% (v/v) Tween 20). 100 μL of TMB substrate was aliquoted into each well, incubated at room temperature for 30 min, and 100 μL of stop buffer (1.0 N HCl) per well was subsequently added. A_{450 nm} values were read using the ELISA plate reader (SpectraMax 384plus purchased from Molecular Device), and the results were shown in Table 5. […] In Table 5 the IgG control herein is a mice IgG control, the data in the Table are OD_{450 nm} values, and Blank represents the OD_{450 nm} value of PBS buffer in the plate.
The purified humanized TPBG antibody obtained from Embodiment 1 was reacted with human TPBG-hFc, for the method, see (5) Identification of lead antibody in Embodiment 1. The EC50 in Table 11 and Table 12 are calculated according to the OD450 nm value of the h12B12 variants and the h28D4 variants, respectively. […] FIGS. 7A and 7B are the binding reactions of purified humanized h12B12 variants to human TBPG-hFc protein, and FIGS. 8A and 8B are the binding reactions of the purified humanized h28D4 variants to human TBPG-hFc protein.

B1: Humanized antibody 12B12-6 (antibody, V domains shown)
VH: EVQLVESGGGLVQPGGSLRLSCAASGFTFSNFGMHWVRQAPGKGLEWVAYISSGSTSFYYADTVKGRFTISRDNAKNSLYLQMNSLRDEDTAVYYCSRTNSLLRGFFDAWGQGTTVTVSS
VL: DIVLTQSPDSLAVSLGERATINCRASQSVSSSSYTYLHWYQQKPGQPPKLLIKSASNLESGVPDRFSGSGSGTDFTLTISSLQAEDVAVYYCQHSWEIPLTFGQGTKLEIK
notes: also called h12B12-6
B1 displayed an EC50 of 0.362 nM.

B2: Humanized antibody 12B12-14 (antibody, V domains shown)
VH: B1 VH
VL: DIVLTQTPLSLSVTPGQPASISCRASQSVSSSSYTYLHWYLQKPGQPPQLLIKSASNLESGVPDRFSGSGSGTDFTLKISRVEAEDVGVYYCQHSWEIPLTFGQGTKLEIK
notes: also called h12B12-14
Molecule B2 yielded an EC50 of 0.257 nM.

B3: Humanized antibody 12B12-1 (antibody, V domains shown)
VH: B1 VH with A49S
VL: B1 VL with L4M, K53Y
notes: also called h12B12-1
On to B3, for which the response was half-maximal at 0.248 nM (EC50).

B4: Humanized antibody 12B12-11 (antibody, V domains shown)
VH: B1 VH with L11V, G16R, A75S, S78T, D88A
VL: B2 VL with L4M, K53Y
notes: also called h12B12-11
B4 yielded an EC50 of 0.239 nM.

B5: Humanized antibody 12B12-7 (antibody, V domains shown)
VH: B1 VH with L11V, G16R, A75S, S78T, D88A, S97A
VL: B1 VL
notes: also called h12B12-7
In turn, B5 yielded an EC50 of 0.367 nM.

B6: Humanized antibody 12B12-9 (antibody, V domains shown)
VH: B1 VH with A49S
VL: B2 VL with L4M, K53Y
notes: also called h12B12-9
With B6, the response was half-maximal at 0.223 nM (EC50).

B7: Humanized antibody 12B12-2 (antibody, V domains shown)
VH: B1 VH
VL: B1 VL with L4M, K53Y
notes: also called h12B12-2
The molecule B7 yielded an EC50 of 0.274 nM.

B8: Humanized antibody 12B12-8 (antibody, V domains shown)
VH: B1 VH with L11V, G16R, A75S, S78T, D88A
VL: B1 VL
notes: also called h12B12-8
B8 showed an EC50 of 0.287 nM.

B9: Humanized antibody 12B12-13 (antibody, V domains shown)
VH: B1 VH with A49S
VL: B2 VL
notes: also called h12B12-13
Take B9: the EC50 is 0.289 nM.

B10: Humanized antibody 12B12-3 (antibody, V domains shown)
VH: B1 VH with L11V, G16R, A75S, S78T, D88A
VL: B1 VL with L4M, K53Y
notes: also called h12B12-3
Molecule B10 yielded an EC50 of 0.333 nM.

B11: Humanized antibody 12B12-10 (antibody, V domains shown)
VH: B1 VH
VL: B2 VL with L4M, K53Y
notes: also called h12B12-10
Consider B11, for which the EC50 was 0.25 nM.

B12: Humanized antibody 28D4-6 (antibody, V domains shown)
VH: EVQLVESGGGLVKPGGSLRLSCAASGFTFSNYVMSWIRQAPGKGLEWVSEISTGGSHTYYSDTVTGRFTISRDNAKNSLYLQMNSLRAEDTAVYYCIMFYYGSSYSMDYWGQGTTVTVSS
VL: DIQMTQSPSSLSASVGDRVTITCRASQDIRNYLNWYQQKPGKAPKLLIYHTSRLHSGVPSRFSGSGSGTDYTFTISSLQPEDIATYYCQQGDTLPLTFGQGTRLEIK
notes: also called h28D4-6
For the molecule B12, the EC50 was determined as 0.205 nM.

B13: Humanized antibody 28D4-1 (antibody, V domains shown)
VH: B12 VH with I97A, M98R
VL: B12 VL with Y71F
notes: also called h28D4-1
Molecule B13 returned an EC50 of 0.364 nM.

B14: Humanized antibody 28D4-5 (antibody, V domains shown)
VH: B12 VH with I97A, M98R
VL: B12 VL
notes: also called h28D4-5
On to B14, for which the EC50 was determined as 0.782 nM.

B15: Humanized antibody 28D4-2 (antibody, V domains shown)
VH: B12 VH
VL: B12 VL with Y71F
notes: also called h28D4-2
The molecule B15 returned a concentration for a half-maximal effect (EC50) of 0.181 nM.

B16: Humanized antibody 28D4-9 (antibody, V domains shown)
VH: B12 VH with I97A, M98R
VL: B12 VL with A43T, P44V, Y87F
notes: also called h28D4-9
B16 yielded an EC50 of 0.218 nM.
